Tests used:
Assay in all cases: IEDB peptide-MHC binding, purified MHC/competitive/fluorescence; filed as Kd, often an IC50 or EC50 that approximates it; ≥ and ≤ were set here for values at or beyond the usual limits of such assays
Conditions in all cases: source organism: Entamoeba histolytica HM-1:IMSS
HLA-B*51:01 = molecular target: HLA-B*51:01
HLA-B*14:02 = molecular target: HLA-B*14:02
HLA-A*02:12 = molecular target: HLA-A*02:12
HLA-A*66:01 = molecular target: HLA-A*66:01
HLA-B*15:17 = molecular target: HLA-B*15:17
HLA-B*40:01 = molecular target: HLA-B*40:01
HLA-B*53:01 = molecular target: HLA-B*53:01
HLA-A*02:03 = molecular target: HLA-A*02:03
HLA-B*08:01 = molecular target: HLA-B*08:01
HLA-A*03:01 = molecular target: HLA-A*03:01
HLA-B*15:01 = molecular target: HLA-B*15:01
HLA-B*57:01 = molecular target: HLA-B*57:01
HLA-B*07:02 = molecular target: HLA-B*07:02
HLA-A*11:01 = molecular target: HLA-A*11:01
HLA-A*02:16 = molecular target: HLA-A*02:16
HLA-A*23:01 = molecular target: HLA-A*23:01
HLA-A*02:01 = molecular target: HLA-A*02:01
HLA-A*02:19 = molecular target: HLA-A*02:19
HLA-A*24:03 = molecular target: HLA-A*24:03
HLA-B*39:01 = molecular target: HLA-B*39:01
HLA-B*58:01 = molecular target: HLA-B*58:01
HLA-A*02:11 = molecular target: HLA-A*02:11
HLA-B*27:03 = molecular target: HLA-B*27:03
HLA-B*44:02 = molecular target: HLA-B*44:02

Which Kd (HLA-B*51:01) does the source give for EVIRATYPS here?
The Kd was at least 20 µM.

What about the Kd (HLA-B*14:02) of the same sequence?
The Kd was at least 5 µM.

And the Kd (HLA-A*02:12)?
Its Kd is at least 20 µM.

And the Kd (HLA-A*66:01)?
Its Kd is 0.0244 µM.

And the Kd (HLA-B*15:17)?
Its Kd is at least 20 µM.

What about the Kd (HLA-B*40:01) of the same sequence?
Its Kd is at least 5 µM.

And the Kd (HLA-B*53:01)?
The Kd was at least 5 µM.

What about the Kd (HLA-A*02:03) of the same sequence?
Its Kd is at least 20 µM.

And the Kd (HLA-B*08:01)?
Its Kd is at least 5 µM.

What about the Kd (HLA-A*03:01) of the same sequence?
The Kd was at least 20 µM.

And the Kd (HLA-B*15:01)?
Its Kd is at least 20 µM.

And the Kd (HLA-B*57:01)?
The Kd was at least 20 µM.

What about the Kd (HLA-B*07:02) of the same sequence?
The Kd was at least 5 µM.

What about the Kd (HLA-A*11:01) of the same sequence?
The Kd was at least 5 µM.

And the Kd (HLA-A*02:16)?
Its Kd is at least 20 µM.

And the Kd (HLA-A*23:01)?
The Kd was at least 20 µM.

And the Kd (HLA-A*02:01)?
The Kd was at least 20 µM.

What about the Kd (HLA-A*02:19) of the same sequence?
The Kd was at least 20 µM.

And the Kd (HLA-A*24:03)?
Its Kd is at least 20 µM.

What about the Kd (HLA-B*39:01) of the same sequence?
Its Kd is at least 20 µM.

And the Kd (HLA-B*58:01)?
Its Kd is at least 5 µM.

What about the Kd (HLA-A*02:11) of the same sequence?
Its Kd is at least 20 µM.

What about the Kd (HLA-B*27:03) of the same sequence?
Its Kd is at least 20 µM.

What about the Kd (HLA-B*44:02) of the same sequence?
Its Kd is at least 5 µM.
